This note sets out measurements from paper doi:10.1101/694653 (bioRxiv, 2019).

What all share (assay): cross-linking
The target in data set [1] is A. aegypti GPA2-FLAG (Aedes aegypti) (UniProt C6SUP2).
Data set [2] has the same target. The source holds these as a separate data set.
For data set [3], the target named is A. aegypti GPA2-His (Aedes aegypti) (UniProt C6SUP2).
Data set [4] deals with the molecule itself.
Data set [5] deals with the molecule itself. This is another data set of the same source.

Read-outs that look alike come from different tables or passages of the source.

Regarding “A. aegypti GPA2-FLAG (from UniProt C6SUP2 1-120) (natural protein)”, the stoichiometry N in data set [1] and in data set [2] was 2 in each case.
On to “A. aegypti GPA2-His (from UniProt C6SUP2 1-120) (natural protein)”, for which the stoichiometry N in data set [3] was determined as 2.

B1: H. sapiens GPA2-FLAG (natural protein, UniProt Q96T91 24-129, looked up)
chain: QEAVIPGCHLHPFNVTVRSDRQGTCQGSHVAQACVGHCESSAFPSRYSVLVASGYRHNITSVSQCCTISGLKKVKVQLQCVGSRREELEIFTARACQCDMCRLSRY
As to B1, in data set [4], the “stoichiometry N” value was 2.

B2: A. aegypti GPB5-His (natural protein, Aedes aegypti, UniProt C6SUR0 1-162, looked up)
chain: VEDSLFISGFEKKAPMLGCHKRVFTYRISQADSKGRECWDHVSVWSCHGRCDSNEISDWRFPYKRSHHPVCMHAGRTRSVATLRHCHPEADAEAKLYEYMEPKSCSCQTCTSMDTSCEGPKQLSTDAATKIFQIDDEEIESEYA
On to B2, for which the “stoichiometry N” value in data set [5] turned out to be 2.

B3: H. sapiens GPB5-His (natural protein, UniProt Q86YW7 25-130, looked up)
chain: ASSGNLRTFVGCAVREFTFLAKKPGCRGLRITTDACWGRCETWEKPILEPPYIEAHHRVCTYNETKQVTVKLPNCAPGVDPFYTYPVAIRCDCGACSTATTECETI
In the case of B3, in data set [4], the “stoichiometry N” value worked out at 2.
